These results are taken from publication PMC2962642, “Familial Glucocorticoid Receptor Haploinsufficiency by Non-Sense Mediated mRNA Decay, Adrenal Hyperplasia and Apparent Mineralocorticoid Excess”.

For the series, the target named is hGRalpha-R469X (Homo sapiens, UniProt P04150 1-468). The series is described as follows: EMSA; 15 min at 25 C; 4.5% acrylamide/bisacrylamide (37:1) gel, 0.25x TBE (50 mM Tris, 50 mM boric acid, 1 mM EDTA); binding buffer and pH not stated (as in ref. 26). Conditions: protein: ivt; label: 32P-dCTP (Klenow fill-in); 5' overhangs AGCT, filled in by Klenow for the labeled probe. For orientation: In EMSA bound probe runs differently from free probe, usually more slowly.
hGRalpha-R469X, sequence (P04150 1-468): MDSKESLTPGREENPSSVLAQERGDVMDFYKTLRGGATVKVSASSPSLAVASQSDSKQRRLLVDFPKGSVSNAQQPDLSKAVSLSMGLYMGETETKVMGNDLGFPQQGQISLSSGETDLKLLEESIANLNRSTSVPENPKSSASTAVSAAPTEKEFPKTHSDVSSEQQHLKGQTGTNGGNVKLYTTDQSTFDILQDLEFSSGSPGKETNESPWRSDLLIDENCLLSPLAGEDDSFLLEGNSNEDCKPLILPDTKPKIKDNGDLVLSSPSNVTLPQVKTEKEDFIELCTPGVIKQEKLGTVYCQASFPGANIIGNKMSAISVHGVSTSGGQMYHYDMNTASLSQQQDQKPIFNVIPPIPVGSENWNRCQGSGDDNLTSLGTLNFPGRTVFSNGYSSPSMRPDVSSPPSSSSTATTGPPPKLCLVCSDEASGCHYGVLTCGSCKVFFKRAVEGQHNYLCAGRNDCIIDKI

B1: GRE consensus probe (dsDNA)
DNA 1: AGCTGCTCAGCTAGAACACTCTGTTCTCTACT
DNA 2: AGCTAGTAGAGAACAGAGTGTTCTAGCTAGC
On to B1, for which the binding result is listed as “no binding”.
